Data taken from the supplement of paper PMC7877785.
± gives the uncertainty stated by the source.

Experiment: self-splicing fitness, log relative to wild type (ln ratio); higher = more splicing; Tetrahymena group I intron in knt gene, E. coli kanamycin selection, DiMSum; sequences stand for … in CUCUCU…GGAGGGAAAAGUUAUCAGGCAUGCACCUGGUAGCUAGUCUUUAAACCAAUAGAUUGCAUCGGUUUAAAAGGCAAGACCGUCAAAUUGCGGGAAAGGGGUCAACAGCCGUUCAGUACCAAGUCUCAGGGGAAACUUUGAGAUGGCCUUGCAAAGGGUAUGGUAAUAAGCUGACGGACAUGGUCCUAACCACGCAGCCAAGUCCUAAGUCAACAGAUCUUCUGUUGAUAUGGAUGCAGUUCACAGACUAAAUGUCGGUCGGGGAAGAUGUAUUCUUCUCAUAAGAUAUAGUCGGACCUCUCCUUAAUGGGAGCUAGCGGAUGAAGUGAUGCAACACUGGAGCCGCUGGGAACUAAUUUGUAUGCGAAAGUAUAUUGAUUAGUUUUGGAGUACUCGUGGUCG
Method in brief: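 Fitness was computed with DiMSum as the error-weighted combination of replicate fold changes, kanamycin versus none, each normalised to wild type. The library randomised all eight intron nucleotides of the P1ex region, with the intron placed in the knt kanamycin-resistance gene on pET-22b(+) in E. coli BL21(DE3). Six replicate transformations were grown overnight at 37°C or 30°C on LB agar with or without 25 μg/mL kanamycin, plus 100 μg/mL carbenicillin, 50 μM IPTG and 0.2% rhamnose. Pooled colonies were amplicon-sequenced on an Illumina HiSeq 2500.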

| Sequence | self-splicing fitness (ln) (30 °C) | self-splicing fitness (ln) (37 °C) |
| --- | --- | --- |
| AAUCAGCAAUAUUACGCGCA | -0.8 ± 0.081 | -0.264 ± 0.12 |
| AAUCAGCAAUAUUACGCGUC | -1.14 ± 0.071 | 0.513 ± 0.088 |
| AAUCAGCAAUAUUACGCUAA | -0.408 ± 0.089 | 0.12 ± 0.092 |
| AAUCAGCAAUAUUACGCUUA | -0.484 ± 0.072 | 0.347 ± 0.098 |
| AAUCAGCAAUAUUACGGCGA | -0.0143 ± 0.073 | 0.557 ± 0.093 |
| AAUCAGCAAUAUUACGGGCA | -0.515 ± 0.091 | -0.146 ± 0.12 |
| AAUCAGCAAUAUUACGGUGA | -0.138 ± 0.076 | 0.345 ± 0.087 |
| AAUCAGCAAUAUUACGGUUU | -1.35 ± 0.056 | -0.0658 ± 0.064 |
| AAUCAGCAAUAUUACGUCAA | -0.952 ± 0.077 | -0.614 ± 0.1 |
| AAUCAGCAAUAUUACGUCUU | 0.123 ± 0.06 | 0.106 ± 0.079 |
| AAUCAGCAAUAUUACGUGAC | -1.81 ± 0.085 | -1.72 ± 0.12 |
| AAUCAGCAAUAUUACGUGCG | -0.392 ± 0.058 | -0.216 ± 0.08 |
| AAUCAGCAAUAUUACGUGUG | -0.753 ± 0.053 | -0.737 ± 0.067 |
| AAUCAGCAAUAUUACGUUAC | -2.78 ± 0.13 | -1.08 ± 0.1 |
| AAUCAGCAAUAUUACGUUCA | -1.2 ± 0.091 | -0.527 ± 0.11 |
| AAUCAGCAAUAUUACGUUGU | -2.38 ± 0.1 | -1.68 ± 0.12 |
| AAUGAGCAAUAUUACGAACU | -1.11 ± 0.14 | -0.57 ± 0.16 |
| AAUGAGCAAUAUUACGAAUG | -3.34 ± 0.36 |  |
| AAUGAGCAAUAUUACGACCA | -2.14 ± 0.24 | -2.22 ± 0.37 |
| AAUGAGCAAUAUUACGAGCA | -3.45 ± 0.32 | -2.35 ± 0.29 |
| AAUGAGCAAUAUUACGCACU | -1.07 ± 0.11 | 0.105 ± 0.15 |
| AAUGAGCAAUAUUACGCGCC | -3.19 ± 0.28 | -2.73 ± 0.44 |
| AAUGAGCAAUAUUACGCGGA | -2.88 ± 0.21 | -2.13 ± 0.21 |
| AAUGAGCAAUAUUACGCGGU | -2.93 ± 0.17 | -3.12 ± 0.32 |

| Sequence | self-splicing fitness (ln) (30 °C) | self-splicing fitness (ln) (37 °C) |
| --- | --- | --- |
| AAUGAGCAAUAUUACGCUUU | -3.41 ± 0.23 | -2.34 ± 0.31 |
| AAUGAGCAAUAUUACGGAUU | -2.38 ± 0.15 | -1.04 ± 0.16 |
| AAUGAGCAAUAUUACGGCCG | -2.12 ± 0.15 | -1.36 ± 0.2 |
| AAUGAGCAAUAUUACGGCGA | -2.77 ± 0.34 | -0.446 ± 0.19 |
| AAUGAGCAAUAUUACGGGGC | -2.82 ± 0.2 | -1.93 ± 0.24 |
| AAUGAGCAAUAUUACGGGUG | -3.73 ± 0.33 | -2.72 ± 0.22 |
| AAUGAGCAAUAUUACGUAUC | -3.14 ± 0.21 | -1.14 ± 0.17 |
| AAUGAGCAAUAUUACGUCCG | -4.29 ± 0.39 | -3.13 ± 0.29 |
| AAUGAGCAAUAUUACGUUCU | -2 ± 0.085 | -1.21 ± 0.092 |
| AAUGAGCAAUAUUACGUUUA | -3.81 ± 0.35 | -2.21 ± 0.22 |
| AAUGAGCAAUAUUACGUUUU | -3.53 ± 0.16 | -2.15 ± 0.17 |
| AAUUAGCAAUAUUACGACCU | 0.197 ± 0.19 | 0.333 ± 0.21 |
| AAUUAGCAAUAUUACGACGA | -0.729 ± 0.12 | -0.15 ± 0.2 |
| AAUUAGCAAUAUUACGAGCA | -1.1 ± 0.12 | -0.758 ± 0.1 |
| AAUUAGCAAUAUUACGAUAU | -0.45 ± 0.093 | 0.012 ± 0.12 |
| AAUUAGCAAUAUUACGCAGU | -2.78 ± 0.16 | -1.3 ± 0.2 |
| AAUUAGCAAUAUUACGCCAG |  | -2.11 ± 0.31 |
| AAUUAGCAAUAUUACGCCCA | 0.555 ± 0.24 | -0.278 ± 0.36 |
| AAUUAGCAAUAUUACGCGUA | -1.07 ± 0.12 | -0.804 ± 0.14 |
| AAUUAGCAAUAUUACGCGUU | -3.13 ± 0.32 | -2.61 ± 0.28 |
| AAUUAGCAAUAUUACGCUAU | -2.55 ± 0.26 | -1.97 ± 0.31 |
| AAUUAGCAAUAUUACGCUUA | -0.993 ± 0.12 | 0.247 ± 0.14 |
| AAUUAGCAAUAUUACGGCCA | -0.657 ± 0.14 | 0.518 ± 0.17 |
| AAUUAGCAAUAUUACGGCUU | -0.0634 ± 0.092 | 0.169 ± 0.13 |
